# Assay results taken from the RNAGym collection of RNA variant scans (doi:10.1073/pnas.2313332121).
# B1: TPR t1 (parent)
# chain: GACCAAUCUGCCCUCAGAGCUCGAGAACAUCUUCGGAUGCAGAGGAGGCAGGCUUCGGUGGCGCGAUAGCGCCAACGUCCUCAACCUCCAAUGCAUCCCACCACAUGAUGAUGCCUGAAGAGCCUUGGUUUUUUG
# Variants of: B1
# Test: polymerase ribozyme fitness, log enrichment relative to wild type (log ratio); higher = more active; in vitro selection for triplet polymerase activity
# How it was run: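 Streptavidin-bead capture of gel-excised extended constructs, followed by RT-PCR, closed a single triplicate in vitro selection round. That round began by annealing PCR-built, transcribed mutant libraries of each subunit of a heterodimeric triplet polymerase ribozyme with a biotinylated primer, the partner subunit and triplets, then incubating them frozen at −7 °C. After Illumina sequencing of inputs and outputs, genotypes needed ≥10 input reads and ≥1 read per output. Fitness is the base-2 logarithm of genotype enrichment over wild-type enrichment, using inverse-variance-weighted replicate averages.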
row,Variant,polymerase ribozyme fitness (log ratio)
1,A37G C86A,-1.81
2,A37C G107A C123A,-5.8
3,A37U C40G G63A A66G C82A U109G,-6.22
4,U38C U59G A95C,-0.718
5,A37C C49U G61C,-3.38
6,A37C C97U,-1.69
7,A37C C56U,0.093
8,A37C C73A A118U U125G,-0.0605
9,A37C G57U A68G,-3.57
10,A37G U131G,-1.11
11,A37G A43U G44U C72U U87C C104U U129G,-2.31
12,A37C C76A,-1.6
13,U38C A43U C86A,-2.82
14,A37C G42C G122A,-2.78
15,A37U C82A G93U,-1.72
16,A37U C73U G120C,1.31
17,A37G A46U C56A G120A,-1.7
18,U38A C40U,-1.9
19,A37G A68G A111C C124G,-3.95
20,U38A C124A,1.2
21,A37G G57A G110C,-5.28
22,A37U A75U,-0.0341
23,U38C G63A G77C U131G,-2.97
24,A37U G47A U116G,-3.09

row,Variant,polymerase ribozyme fitness (log ratio)
1,A37G G61U,-1.33
2,A37G G61C,-1.44
3,A37G G61A,-0.324
4,A37C G52C G60A C86U,-2.95
5,U38A G71A U129A,-3.95
6,A37C G45U G51U C73U C124G,-3.87
7,U38A G58C C70U C115A,-1.72
8,U38G A46C C101U,-2.55
9,A37U G45U G61C,-2.86
10,U38G A46U G110U,-4.8
11,A37C C102A,-2.31
12,A37U U59A G61C G93U A95G U130G,-5.82
13,U38G C49U G61U,-1.52
14,U38A C53G C88G G120A C123G,-1.3
15,A37C C64U U87A G117U,-3.55
16,A37U C56U,-0.686
17,A37U C56A,-1.32
18,A37U A74G A90C,-2.26
19,U38C A46C C53A C76G C80U C94U,-2.96
20,U38A C102U A111G U112A U126G U129C,-6.23
21,A37C A46G C49A C72A,-0.663
22,A37U G61U C114A U130A,-1.52
23,A37U U38A G63A,-3.7
24,A37U C114A A121C U125C,-0.52

row,Variant,polymerase ribozyme fitness (log ratio)
1,A37U G113U G120A,-2.83
2,U38A C80U C123U,-1.04
3,A37G C49A C56A G128C,-3.61
4,A37U A91G A105U,-3.28
5,A37U G42C G57C C70U U129A,-5
6,A37C C70G C79U A121U,0.503
7,A37C A68G U78C C82U U133G,-3.87
8,A37U C49G G77U G120C,0.00604
9,A37C C53U,-0.73
10,A37C G120A G122A,-1.07
11,U38A G42U U59A C88G A95U C114A,-4.56
12,A37U G47U G60A G110A,-3.74
13,A37U G122A,-1.18
14,A37C C53G C62A,-1.57
15,U38C G39U,-1.44
16,U38G C80U C86U,-1.86
17,A37U A41U C79G,-4.3
18,U38A G60U C62A C115G,-6.12
19,A37U C82A G120C,0.889
20,A37C G113C,-2.44
21,A37C C40A G52A G61C A111C G127C,-5.24
22,A37U C70U C79U,-0.766
23,A37C G45C A111G,-2.91
24,U38G A95C A100C U106A G127A,-3.43

row,Variant,polymerase ribozyme fitness (log ratio)
1,U38A G69C,-2.61
2,A37U C85U,-1.29
3,A37C G44U U133G,-2.6
4,A37U C62A U92C,-2.86
5,A37G U55G C88U A105C G120C U125C,-1.81
6,A37C G93U A111G,-2.63
7,A37C C123A,-0.297
8,A37U A121C U126G G128U,0.977
9,U38G G42U G120C U126G G128U,-3.39
10,A37U G77A A111C,0.0508
11,A37C G39C G63A,-4.27
12,U38G G47U C76U C85U U96C U130C,-5.5
13,A37U G69U A95C C101G G127A,-3.13
14,A37U A50U G63U G120U U126A U130A,-5.22
15,A37G G60A G127A,-2
16,U38G C53G G69U C98A,-6.04
17,A37C C114G G120A C123U,-5.25
18,U38A G63A G93U,-4.96
19,A37G C49G U81G,-2.07
20,A37C G128C,-3.32
21,A37G A43U G47U C101G,-4.64
22,U38G A84U,-1.9
23,U38A A90U,-2.22
24,A37U G122A U130C U131A G135U,-1.18

row,Variant,polymerase ribozyme fitness (log ratio)
1,A37U G39C U54C U59G C89A U112A A121C,-4.68
2,A37U A50C G61A G117C U130C,-4.59
3,A37U C49G,-0.828
4,A37U G52C G71A C115U U132C,-3.24
5,A37U G60U G113U,-3.06
6,A37U U38C C53U,-1.6
7,A37G G69U C73U U87C C104A U131G,-4.34
8,A37C C70U C85U C98U G113U U133A,-5.51
9,A37C C70U,-0.649
10,A37U C72A C73U G117U C124A,-1.66
11,A37U U112G,-1.14
12,U38A G45U G52A U131G,-3.68
13,A37C G51C,-4.02
14,A37C G61U,0.0821
15,G36U U78C C89G C101A,-4.13
16,U38A A46U,-2.42
17,A37U C73A U87C,0.034
18,A37U U78C,-0.461
19,A37C G60U U96A G110C U134A,-2.04
20,A37U C82U G128C U130C,-2.33
21,A37G C79G,-1.49
22,U38G G51C,-6.44
23,A37C G45C G71C U130G U131C G135U,-3.26
24,U38G C56U C79G U81G U96C C104A G110C,-5.98

row,Variant,polymerase ribozyme fitness (log ratio)
1,U38A G60A C79U,-1.22
2,A37U C53G C89U C102U U131A,-2.62
3,A37U G77A A90U C123U,-0.717
4,U38G C62U C86U C115A,-2.04
5,A37U G110U,-1.34
6,A37U G110A,-1.04
7,A37U G45U C56U C70G C102G G113A U125A,-7.38
8,U38G C64U,-1.09
9,A37G A100U,-1.32
10,A37U G77U G93C,-2.05
11,A37U G127A,-2.32
12,A37U C79A U87G U96A A118U,-0.000648
13,A37G C62U,-0.523
14,A37G G52C A100C C104U,-2.8
15,A37U G39U G69A,-4.43
16,U38A C80U,-1.43
17,A37C G52A A83C U116C,-2.17
18,U38A A83C U92C C124A,-1.34
19,A37G G69A,-2.42
20,A37U A50C C124G,1.16
21,A37U C56U C72U,-0.343
22,A37U G42A,-2.01
23,A37C G44U C56G C73A C86U,-5.78
24,G36U U78C,-1.61

row,Variant,polymerase ribozyme fitness (log ratio)
1,A37G G52A G61U,-3.07
2,A37G C80U,-2.46
3,A37U C64U U132C,-0.703
4,A37U A90G C97A,-5.5
5,A37C C49A C104U U125G,-1.1
6,U38C C56U C98U G110U,-5.51
7,A37U U59C,-0.107
8,A37U U59A,-0.609
9,A37C C72U,0.162
10,A37C G110C C124A U133A,-3.68
11,A37U U132C,-1.09
12,A37U C123U U126A,0.344
13,U38A A43C A83U C85A,-5.42
14,A37U U54A G61C C102A,-4.66
15,U38A G48U C49A U87A C115A,-3.9
16,U38G A95C,0.185
17,A37U U54C G60U,1.01
18,U38A C70U,-1.15
19,A37G U55G C72A U129A,-1.52
20,A37U G71A A84C C85U U96A,-0.538
21,U38A G93U C123U,-3.41
22,U38A G57A G63A,-4.08
23,U38G C64U A66C A90U A91C U132A,-3.61
